Laboratory results as given in patent US20160200782A1 (MOERAE MATRIX, published 2016).

T1: CaMKIV(h) (human, UniProt Q16566 1-473, limits assumed)
T1 sequence (looked up): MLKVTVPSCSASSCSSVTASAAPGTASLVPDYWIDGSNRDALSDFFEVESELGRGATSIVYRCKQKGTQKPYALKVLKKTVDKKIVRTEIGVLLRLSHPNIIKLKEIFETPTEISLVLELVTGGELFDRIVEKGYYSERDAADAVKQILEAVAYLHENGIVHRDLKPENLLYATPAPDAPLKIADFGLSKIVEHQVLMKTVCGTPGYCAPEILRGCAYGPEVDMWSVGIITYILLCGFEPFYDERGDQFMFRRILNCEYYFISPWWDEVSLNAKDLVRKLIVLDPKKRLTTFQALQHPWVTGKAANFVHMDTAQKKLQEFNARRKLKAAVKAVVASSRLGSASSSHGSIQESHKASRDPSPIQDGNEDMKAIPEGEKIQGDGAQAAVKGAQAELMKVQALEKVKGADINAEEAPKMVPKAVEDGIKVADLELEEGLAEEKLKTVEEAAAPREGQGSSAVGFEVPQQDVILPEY

T2: Haspin(h) (human, UniProt Q8TF76 471-798, limits assumed)
T2 sequence (looked up): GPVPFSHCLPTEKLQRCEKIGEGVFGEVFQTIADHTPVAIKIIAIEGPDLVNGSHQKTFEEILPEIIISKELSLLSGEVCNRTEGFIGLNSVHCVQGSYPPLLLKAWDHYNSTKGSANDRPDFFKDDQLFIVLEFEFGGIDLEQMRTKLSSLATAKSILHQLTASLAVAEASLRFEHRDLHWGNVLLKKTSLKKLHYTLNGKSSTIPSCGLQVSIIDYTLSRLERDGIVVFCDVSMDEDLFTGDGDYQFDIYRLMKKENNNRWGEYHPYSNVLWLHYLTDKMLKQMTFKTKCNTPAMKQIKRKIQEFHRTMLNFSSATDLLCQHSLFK

T3: IRAK4(h) (human, UniProt Q9NWZ3 1-460, limits assumed)
T3 sequence (looked up): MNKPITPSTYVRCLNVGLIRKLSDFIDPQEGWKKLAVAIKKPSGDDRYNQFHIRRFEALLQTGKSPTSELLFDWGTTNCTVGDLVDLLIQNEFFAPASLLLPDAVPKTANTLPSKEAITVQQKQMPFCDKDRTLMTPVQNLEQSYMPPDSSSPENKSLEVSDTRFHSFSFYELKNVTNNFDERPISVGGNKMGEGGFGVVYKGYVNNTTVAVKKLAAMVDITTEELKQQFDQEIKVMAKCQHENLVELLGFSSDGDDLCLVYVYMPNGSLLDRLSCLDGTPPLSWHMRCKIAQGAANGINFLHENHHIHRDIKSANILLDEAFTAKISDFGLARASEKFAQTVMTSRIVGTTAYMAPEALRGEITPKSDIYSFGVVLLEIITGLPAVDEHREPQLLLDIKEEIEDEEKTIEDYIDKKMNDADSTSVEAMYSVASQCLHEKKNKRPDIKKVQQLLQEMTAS

T4: DRAK1(h) (human, UniProt Q9UEE5 1-414, limits assumed)
T4 sequence (looked up): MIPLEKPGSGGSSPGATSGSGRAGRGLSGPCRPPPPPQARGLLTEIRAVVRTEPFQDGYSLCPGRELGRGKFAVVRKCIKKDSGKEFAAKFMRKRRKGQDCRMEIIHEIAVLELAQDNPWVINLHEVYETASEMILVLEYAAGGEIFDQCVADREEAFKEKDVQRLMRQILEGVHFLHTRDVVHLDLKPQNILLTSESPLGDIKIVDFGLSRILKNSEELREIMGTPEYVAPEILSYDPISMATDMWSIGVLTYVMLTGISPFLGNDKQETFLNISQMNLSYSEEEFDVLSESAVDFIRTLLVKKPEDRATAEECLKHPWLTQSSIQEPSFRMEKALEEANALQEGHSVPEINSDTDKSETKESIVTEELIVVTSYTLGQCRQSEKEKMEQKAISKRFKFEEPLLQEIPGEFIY


Legend:
Assay in all cases: cell-based or functional assay
[1] = molecular target: MSK1(h) (human, UniProt O75582 1-802, limits assumed)
[2] = molecular target: Met(M1268T)(h) (human, UniProt P08581-2 974-1408, limits assumed)
[3] = molecular target: T1, CaMKIV(h)
[4] = molecular target: cKit(V654A)(h) (human, UniProt P10721 544-976, limits assumed)
[5] = molecular target: T2, Haspin(h)
[6] = molecular target: p70S6K(h) (human, UniProt P23443 1-421, limits assumed)
[7] = molecular target: T3, IRAK4(h)
[8] = molecular target: EGFR(L861Q)(h) (human, UniProt P00533 696-1210, limits assumed)
[9] = molecular target: GSK3α(h) (human, UniProt P49840 1-483)
[10] = molecular target: CDK5/p25(h) (human, UniProt Q00535 1-292; Q15078 99-307)
[11] = molecular target: T4, DRAK1(h)
[12] = molecular target: RIPK2(h) (human, UniProt O43353 1-299, limits assumed)
[13] = molecular target: mTOR(h) (human, UniProt P42345 1362-2549)

| % activity [1] [%] | % activity [2] [%] | % activity [3] [%] | % activity [4] [%] | % activity [5] [%] | % activity [6] [%] | % activity [7] [%] | % activity [8] [%] | % activity [9] [%] | % activity [10] [%] | % activity [11] [%] | % activity [12] [%] | % activity [13] [%] | Binder |
| --- | --- | --- | --- | --- | --- | --- | --- | --- | --- | --- | --- | --- | --- |
| 28 | 265 | 18 | 150 | 36 | 33 | 59 | 22 | 164 | 92 | 14 | 98 | 93 | KAFAKLAARLYRKALARQLGVAA [MMI-0400] |
| 32 | 255 | 17 | 134 | 48 | 35 | 59 | 25 | 157 | 89 | 14 | 97 | 91 | FAKLAARLYRKALARQLGVAA [MMI-0300] |
